These results are taken from patent publication US12139520B2 (priority 2020, dated 2024).

Residue numbers refer to the chain shown, from its start. Numbered stars: 1 amine (or outer) side, 2 acyl side, 3 side chain; on linkers, the order of the positions; unused ones are H or OH. Bridge positions count the residues as written; N and C are the ends. Square brackets hold non-standard residues; d marks the D form. Ends that are not written are not given here. * marks the point of attachment. C20 diacid = O=C(O)CCCCCCCCCCCCCCCCCCC(=O)*; γGlu = O=C(O)[C@H](CCC(=O)[*:2])N[*:1]; Hyp = O=C(O)[C@@H]1C[C@@H](O)CN1; Cit = NC(=O)NCCC[C@H](N)C(=O)O

First the molecules themselves.
T1: hAMY3R (human, UniProt P30988)
T1 sequence 1: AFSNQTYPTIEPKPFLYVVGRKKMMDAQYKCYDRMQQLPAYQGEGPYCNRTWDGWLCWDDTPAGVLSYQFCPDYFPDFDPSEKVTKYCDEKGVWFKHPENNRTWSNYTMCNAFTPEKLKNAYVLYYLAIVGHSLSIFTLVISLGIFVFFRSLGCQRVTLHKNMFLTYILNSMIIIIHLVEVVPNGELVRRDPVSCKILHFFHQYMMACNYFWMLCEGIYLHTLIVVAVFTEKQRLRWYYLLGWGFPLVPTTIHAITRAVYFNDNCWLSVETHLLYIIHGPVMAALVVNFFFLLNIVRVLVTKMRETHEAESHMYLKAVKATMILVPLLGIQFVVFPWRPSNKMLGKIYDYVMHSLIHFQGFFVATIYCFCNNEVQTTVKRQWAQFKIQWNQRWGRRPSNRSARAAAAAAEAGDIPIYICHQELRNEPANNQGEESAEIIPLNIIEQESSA
T1 sequence 2: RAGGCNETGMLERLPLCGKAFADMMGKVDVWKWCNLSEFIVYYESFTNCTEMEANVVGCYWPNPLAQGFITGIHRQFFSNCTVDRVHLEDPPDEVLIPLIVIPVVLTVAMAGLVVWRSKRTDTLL

B1: SEQ ID NO: 24 (peptide)
peptide: KCNTATCTVQRLAHQIYQFTAKDKDNVAPPTNVGSNG[Hyp]-NH2
modifications: disulfide 2-7 (inferred); ends not checked
B2: SEQ ID NO: 229 (peptide)
peptide: GCRFGTCTVQRLAHQIYQFTDKDKDNVAPRSNIGPQG[Hyp]-NH2
modifications: disulfide 2-7 (inferred); ends not checked
B3: SEQ ID NO: 245 (peptide)
peptide: RCNASTCTVN[Cit]LADQITQFSNKDKAQVSPPTEVGPNS[Hyp]-NH2
modifications: disulfide 2-7 (inferred); ends not checked
B4: SEQ ID NO: 244 (peptide)
peptide: KCNTSTCTVA[Cit]LADQITQFSNKDKAQVSPPTEVGPNS[Hyp]-NH2
modifications: disulfide 2-7 (inferred); ends not checked
B5: SEQ ID NO: 25 (peptide)
peptide: KCNTATCTVQRLAHQIYQFTDKDADNVAPPTNVGSNG[Hyp]-NH2
modifications: disulfide 2-7 (inferred); ends not checked
B6: SEQ ID NO: 253 (peptide)
peptide: KCNTATCTVQ[Cit]LAHQIYQFTKDKDNVAPPTNVGSNG[Hyp]-NH2
modifications: disulfide 2-7 (inferred); ends not checked
B7: SEQ ID NO: 231 (peptide)
peptide: {C20 diacid-γGlu}-KCNTYTCTVQRLAHQIYQFTDKDKDNVAPPTNVGSNG[Hyp]-NH2
modifications: disulfide 2-7 (inferred); ends not checked
B8: SEQ ID NO: 238 (peptide)
peptide: GCRTGTCTVQRLAHQIYQFTNKDKDNVAPRSKISPQF[Hyp]-NH2
modifications: disulfide 2-7 (inferred); ends not checked
B9: SEQ ID NO: 251 (peptide)
peptide: KCNTATCTVQ[Cit]LAHQIYQFTDKDKDNAAPPTNVGSNG[Hyp]-NH2
modifications: disulfide 2-7 (inferred); ends not checked
B10: SEQ ID NO: 26 (peptide)
peptide: KCNTATCTVQRLAHQIYQFTDKDKANVAPPTNVGSNG[Hyp]-NH2
modifications: disulfide 2-7 (inferred); ends not checked
B11: SEQ ID NO: 236 (peptide)
peptide: GCRTGTCTVQRLAHQIYQFTDKFKDNVAPRSKISPQM[Hyp]-NH2
modifications: disulfide 2-7 (inferred); ends not checked
B12: SEQ ID NO: 247 (peptide)
peptide: KCNTSTCTVA[Cit]LADQITQFSDKDKANVSPPTEVGPNS[Hyp]-NH2
modifications: disulfide 2-7 (inferred); ends not checked
B13: SEQ ID NO: 230 (peptide)
peptide: GCRTGTCTVQRLAHQIYQFTDKFKDNVAPRSKISPQTY
B14: SEQ ID NO: 237 (peptide)
peptide: B13 peptide with D21N, F23D, Y38M
B15: SEQ ID NO: 241 (peptide)
peptide: B13 peptide with Y38A
B16: SEQ ID NO: 242 (peptide)
peptide: B13 peptide with D21N, F23D, Y38R
B17: SEQ ID NO: 235 (peptide)
peptide: B13 peptide with Y38P
B18: SEQ ID NO: 239 (peptide)
peptide: B13 peptide with Y38F
B19: SEQ ID NO: 240 (peptide)
peptide: GCRFGTCTVQRLAHQIYQFTDKDKDNVAPSSKISPQT[Hyp]-NH2
modifications: disulfide 2-7 (inferred); ends not checked
B20: SEQ ID NO: 252 (peptide)
peptide: KCNTATCTVQ[Cit]LAHQIYQFTDKDKDNVAPATNVGSNG[Hyp]-NH2
modifications: disulfide 2-7 (inferred); ends not checked
B21: SEQ ID NO: 243 (peptide)
peptide: KCNTATCTVQ[Cit]LAAQIYQFTDKDKDNVAPPTNVGSNG[Hyp]-NH2
modifications: disulfide 2-7 (inferred); ends not checked
B22: SEQ ID NO: 234 (peptide)
peptide: KCNTATCATQRLANFLVQFTDKDKDNVAPRSKISPQGY
B23: SEQ ID NO: 255 (peptide)
peptide: KCNTATCTVQ[Cit]LAHQIYQFTDKDKDNVAPTNVGSNG[Hyp]-NH2
modifications: disulfide 2-7 (inferred); ends not checked
B24: SEQ ID NO: 250 (peptide)
peptide: KCNTATCTVQ[Cit]LAHQIYQFTDKDADNVAPPTNVGSNG[Hyp]-NH2
modifications: disulfide 2-7 (inferred); ends not checked
B25: SEQ ID NO: 232 (peptide)
peptide: GCRTGTCTVQRLAHQIYQFTNKDKDNVAPRSKISPQQ[Hyp]-NH2
modifications: disulfide 2-7 (inferred); ends not checked
B26: SEQ ID NO: 233 (peptide)
peptide: KCNTATCTVQRLAEQIYQFTDKDKDNVAPPTNVGSNG[Hyp]-NH2
modifications: disulfide 2-7 (inferred); not fully specified (N-terminus); ends not checked; also: N-terminal Lys carries two C20DA-OEG-γGlu-OEG arms ((...)2-K)
B27: SEQ ID NO: 246 (peptide)
peptide: KCNTATCTVQ[Cit]LAHQIAQFTDKDKDNVAPPTNVGSNG[Hyp]-NH2
modifications: disulfide 2-7 (inferred); ends not checked
B28: SEQ ID NO: 249 (peptide)
peptide: KCNTATCTVQ[Cit]LAHQIYQFADKDKDNVAPPTNVGSNG[Hyp]-NH2
modifications: disulfide 2-7 (inferred); ends not checked
B29: SEQ ID NO: 3 (peptide)
peptide: KCNFATCTVQRLAHQIYQFTDKDKDNVAPRTKVGSNG[Hyp]-NH2
modifications: disulfide 2-7 (inferred); ends not checked
B30: SEQ ID NO: 248 (peptide)
peptide: KCNTATCTVQ[Cit]LAHQIYQFTDKDKDNVAPRTKVGSNG[Hyp]-NH2
modifications: disulfide 2-7 (inferred); ends not checked
B31: SEQ ID NO: 254 (peptide)
peptide: KCNTATCTVQ[Cit]LAHQIYQFTDKDKDNVPPTNVGSNG[Hyp]-NH2
modifications: disulfide 2-7 (inferred); ends not checked

One test has as its target T1, hAMY3R. Kind of test: cell-based or functional assay.
For B1, the “hAMY3R EC50 (cAMP)” value is 0.008 nM.
In the case of B2, the “hAMY3R EC50 (cAMP)” value was determined as 0.207 nM.
With B3, the “hAMY3R EC50 (cAMP)” value was determined as 0.017 nM.
B4: the “hAMY3R EC50 (cAMP)” value worked out at 0.006 nM.
Take B5: the “hAMY3R EC50 (cAMP)” value was 0.008 nM.
With B6, the “hAMY3R EC50 (cAMP)” value worked out at 0.004 nM.
Take B7: the “hAMY3R EC50 (cAMP)” value was found to be 0.209 nM.
The same measure, in the same setting: with B8 the figure was 0.235 nM; with B9, 0.006 nM.
Turning to B10, the “hAMY3R EC50 (cAMP)” value is 0.008 nM.
For B11, the “hAMY3R EC50 (cAMP)” value was 0.234 nM.
For the molecule B12, the “hAMY3R EC50 (cAMP)” value was 0.004 nM.
Still for that read-out and setting: in the case of B13 it was 0.208 nM; in that of B14, 0.235 nM.
The same measure, in the same setting: with B15 the figure was 0.242 nM; with B16, 0.248 nM.
In the case of B17, the “hAMY3R EC50 (cAMP)” value turned out to be 0.233 nM.
B18: the “hAMY3R EC50 (cAMP)” value turned out to be 0.236 nM.
On to B19, for which the “hAMY3R EC50 (cAMP)” value is 0.24 nM.
With B20, the “hAMY3R EC50 (cAMP)” value came to 0.006 nM.
On to B21, for which the “hAMY3R EC50 (cAMP)” value was 0.018 nM.
For B22, the “hAMY3R EC50 (cAMP)” value amounted to 0.227 nM.
For the molecule B23, the “hAMY3R EC50 (cAMP)” value was determined as 0.007 nM.
In the case of B24, the “hAMY3R EC50 (cAMP)” value came to 0.011 nM.
Regarding B25, the “hAMY3R EC50 (cAMP)” value is 0.213 nM.
In the case of B26, the “hAMY3R EC50 (cAMP)” value worked out at 0.22 nM.
Turning to B27, the “hAMY3R EC50 (cAMP)” value was determined as 0.01 nM.
As to B28, the “hAMY3R EC50 (cAMP)” value was found to be 0.006 nM.
Still for that read-out and setting: in the case of B29 it was 0.006 nM; in that of B30, 0.027 nM.
Consider B31, for which the “hAMY3R EC50 (cAMP)” value was 0.006 nM.

A further test addresses hAM1R (human, UniProt Q16602). Kind of test: cell-based or functional assay.
As for B1, the “hAM1R EC50 (cAMP)” value was more than 5 µM.
Still for that read-out and setting: in the case of B2 it was 2.98 µM.
As for B3, the “hAM1R EC50 (cAMP)” value was more than 5 µM.
The same measure, in the same setting: in the case of B4 it was more than 5 µM; in that of B5, more than 5 µM.
Turning to B6, the “hAM1R EC50 (cAMP)” value was more than 5 µM.
For the molecule B7, the “hAM1R EC50 (cAMP)” value is more than 5 µM.
Turning to B8, the “hAM1R EC50 (cAMP)” value is more than 5 µM.
As for B9, the “hAM1R EC50 (cAMP)” value was more than 5 µM.
In the case of B10, the “hAM1R EC50 (cAMP)” value was more than 5 µM.
For the molecule B11, the “hAM1R EC50 (cAMP)” value amounted to 2.24 µM.
As to B12, the “hAM1R EC50 (cAMP)” value is more than 5 µM.
As to B13, the “hAM1R EC50 (cAMP)” value was more than 5 µM.
Same read-out and setting: with B14 the figure was 4.25 µM; with B15, 2.29 µM; with B16, more than 5 µM.
B17: the “hAM1R EC50 (cAMP)” value was determined as 1.42 µM.
B18: the “hAM1R EC50 (cAMP)” value was more than 5 µM.
Regarding B19, the “hAM1R EC50 (cAMP)” value was more than 5 µM.
Consider B20, for which the “hAM1R EC50 (cAMP)” value is more than 5 µM.
As for B21, the “hAM1R EC50 (cAMP)” value worked out at 3.34 µM.
Consider B22, for which the “hAM1R EC50 (cAMP)” value is more than 5 µM.
B23: the “hAM1R EC50 (cAMP)” value is more than 5 µM.
For the molecule B24, the “hAM1R EC50 (cAMP)” value is more than 5 µM.
Consider B25, for which the “hAM1R EC50 (cAMP)” value was more than 5 µM.
In the case of B26, the “hAM1R EC50 (cAMP)” value is more than 5 µM.
As to B27, the “hAM1R EC50 (cAMP)” value was more than 5 µM.
Same read-out and setting: in the case of B28 it was more than 5 µM.
The same measure, in the same setting: with B29 the figure was 0.124 µM; with B30, 3.59 µM.
On to B31, for which the “hAM1R EC50 (cAMP)” value was more than 5 µM.
